Test results taken from ChEMBL document CHEMBL4828702, “Identification of Novel High-Affinity Substrates of OCT1 Using Machine Learning-Guided Virtual Screening and Experimental Validation” (J Med Chem, 2021).

Experiments:
[1] = target: Solute carrier family 22 member 1 (Homo sapiens) (UniProt O15245); assay: Substrate activity at human OCT1 expressed in HEK293 cells assessed as increase in compound uptake by measuring intrinsic clearance incubated for 2 mins by LC-MS/MS analysis
OCT1 = assay: Ratio of drug uptake in human OCT1 expressing HEK293 cells at 2.5 uM to drug uptake in empty vector transfected human HEK293 cells at 2.5 uM; format: ADME, cell-based
[2] = substrate: C[N+]1(C)[C@@H]2C[C@H](OC(=O)[C@H](CO)c3ccccc3)C[C@H]1[C@@H]1O[C@@H]12; assay: (§1) Substrate activity at human OCT1 expressed in HEK293 cells assessed as increase in compound uptake by measuring Km incubated for 2 mins by LC-MS/MS analysis; format: cell-based
[3] = substrate: N=C(N)NC(=O)Cc1c(Cl)cccc1Cl; assay: as §1; format: cell-based
[4] = substrate: CCN(CC)C(=O)C1(c2ccccc2)CC1CN; assay: as §1; format: cell-based
[5] = substrate: CCN(CC)CCNC(=O)c1ccc(NS(C)(=O)=O)cc1; assay: as §1; format: cell-based
[6] = substrate: CC(C)NCC(O)c1ccc(NS(C)(=O)=O)cc1; assay: as §1; format: cell-based
[7] = substrate: CC(CCc1ccc(O)cc1)NCCc1ccc(O)c(O)c1; assay: as §1; format: cell-based
[8] = substrate: C[N+]1(C)CCN(c2ccccc2)CC1; assay: as §1; format: cell-based
[9] = substrate: NCC(O)c1cccc(O)c1; assay: as §1; format: cell-based
[10] = substrate: CNC[C@H](O)c1cccc(O)c1; assay: as §1; format: cell-based
[11] = substrate: CC(C)NC[C@H](O)COc1ccc(O)cc1; assay: as §1; format: cell-based
[12] = substrate: NCC(O)c1ccc(O)cc1; assay: as §1; format: cell-based
[13] = substrate: CC[N+](C)(C)c1cccc(O)c1; assay: as §1; format: cell-based
[14] = substrate: CC(NCCc1ccc(O)cc1)C(O)c1ccc(O)cc1; assay: as §1; format: cell-based
[15] = substrate: CC[N+](CC)(CC)Cc1ccccc1; assay: as §1; format: cell-based
[16] = substrate: N=C(N)NCc1cccc(I)c1; assay: as §1; format: cell-based
[17] = substrate: CN[C@@H]1CCc2[nH]c3ccc(C(N)=O)cc3c2C1; assay: as §1; format: cell-based
[18] = substrate: C[N+]1(CCC(C(N)=O)(c2ccccc2)c2ccccc2)CCCCC1; assay: as §1; format: cell-based
[19] = substrate: NC(N)=Nc1nc(CSCC/C(N)=N/S(N)(=O)=O)cs1; assay: as §1; format: cell-based
[20] = substrate: Nc1ccncc1N; assay: as §1; format: cell-based
[21] = substrate: CC[N+](CC)(CC(=O)Nc1c(C)cccc1C)Cc1ccccc1; assay: as §1; format: cell-based
[22] = substrate: CC(CCc1ccc(O)cc1)NCC(O)c1ccc(O)cc1; assay: as §1; format: cell-based
[23] = substrate: C[N+]1(C)[C@@H]2C[C@H](OC(=O)[C@H](CO)c3ccccc3)C[C@H]1[C@@H]1O[C@@H]12; assay: (§2) Substrate activity at human OCT1 expressed in HEK293 cells assessed as increase in compound uptake by measuring Vmax incubated for 2 mins by LC-MS/MS analysis; format: cell-based
[24] = substrate: N=C(N)NC(=O)Cc1c(Cl)cccc1Cl; assay: as §2; format: cell-based
[25] = substrate: CCN(CC)C(=O)C1(c2ccccc2)CC1CN; assay: as §2; format: cell-based
[26] = substrate: CCN(CC)CCNC(=O)c1ccc(NS(C)(=O)=O)cc1; assay: as §2; format: cell-based
[27] = substrate: CC(C)NCC(O)c1ccc(NS(C)(=O)=O)cc1; assay: as §2; format: cell-based
[28] = substrate: CC(CCc1ccc(O)cc1)NCCc1ccc(O)c(O)c1; assay: as §2; format: cell-based
[29] = substrate: C[N+]1(C)CCN(c2ccccc2)CC1; assay: as §2; format: cell-based
[30] = substrate: NCC(O)c1cccc(O)c1; assay: as §2; format: cell-based
[31] = substrate: CNC[C@H](O)c1cccc(O)c1; assay: as §2; format: cell-based
[32] = substrate: CC(C)NC[C@H](O)COc1ccc(O)cc1; assay: as §2; format: cell-based
[33] = substrate: NCC(O)c1ccc(O)cc1; assay: as §2; format: cell-based
[34] = substrate: CC[N+](C)(C)c1cccc(O)c1; assay: as §2; format: cell-based
[35] = substrate: CC(NCCc1ccc(O)cc1)C(O)c1ccc(O)cc1; assay: as §2; format: cell-based
[36] = substrate: CC[N+](CC)(CC)Cc1ccccc1; assay: as §2; format: cell-based
[37] = substrate: N=C(N)NCc1cccc(I)c1; assay: as §2; format: cell-based
[38] = substrate: CN[C@@H]1CCc2[nH]c3ccc(C(N)=O)cc3c2C1; assay: as §2; format: cell-based
[39] = substrate: C[N+]1(CCC(C(N)=O)(c2ccccc2)c2ccccc2)CCCCC1; assay: as §2; format: cell-based
[40] = substrate: NC(N)=Nc1nc(CSCC/C(N)=N/S(N)(=O)=O)cs1; assay: as §2; format: cell-based
[41] = substrate: Nc1ccncc1N; assay: as §2; format: cell-based
[42] = substrate: CC[N+](CC)(CC(=O)Nc1c(C)cccc1C)Cc1ccccc1; assay: as §2; format: cell-based
[43] = substrate: CC(CCc1ccc(O)cc1)NCC(O)c1ccc(O)cc1; assay: as §2; format: cell-based

Solute carrier family 22 member 1 (Homo sapiens), sequence (O15245 whole entry, looked up): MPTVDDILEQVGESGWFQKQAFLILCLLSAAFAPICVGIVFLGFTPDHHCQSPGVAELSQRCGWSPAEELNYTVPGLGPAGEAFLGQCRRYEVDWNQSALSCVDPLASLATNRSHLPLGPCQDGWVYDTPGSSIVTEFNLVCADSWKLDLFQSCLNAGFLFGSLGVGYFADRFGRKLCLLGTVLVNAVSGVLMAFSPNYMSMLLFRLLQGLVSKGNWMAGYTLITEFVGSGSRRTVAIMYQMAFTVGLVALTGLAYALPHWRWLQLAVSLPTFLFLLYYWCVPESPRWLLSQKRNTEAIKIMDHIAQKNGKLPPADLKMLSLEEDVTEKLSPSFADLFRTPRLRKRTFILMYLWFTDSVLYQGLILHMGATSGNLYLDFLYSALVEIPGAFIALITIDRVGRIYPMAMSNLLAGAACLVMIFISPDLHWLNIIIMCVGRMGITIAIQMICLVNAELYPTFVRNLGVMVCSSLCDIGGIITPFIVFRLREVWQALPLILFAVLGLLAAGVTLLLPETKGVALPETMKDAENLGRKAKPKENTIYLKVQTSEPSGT

`NCC(O)c1ccc(O)cc1` (stereo unspecified) showed a clearance [1] of 9.1 mL/min/g.

`NCC(O)c1cccc(O)c1` (stereo unspecified) [NORFENEFRINE] was tested, and the uptake ratio at 2.5 µM (OCT1) was 2.1 and the clearance [1] was 4.6 mL/min/g.

Molecule `CCN(CC)CCNC(=O)c1ccc(NS(C)(=O)=O)cc1` [SEMATILIDE] has an uptake ratio at 2.5 µM (OCT1) of 3.5 and a clearance [1] of 3.3 mL/min/g.

`CNC[C@H](O)c1cccc(O)c1` [PHENYLEPHRINE] gave an uptake ratio at 2.5 µM (OCT1) of 10.6 and a clearance [1] of 17.3 mL/min/g.

Molecule `C[N+]1(CCC(C(N)=O)(c2ccccc2)c2ccccc2)CCCCC1` has an uptake ratio at 2.5 µM (OCT1) of 30.9 and a clearance [1] of 114 mL/min/g.

For `CC[N+](CC)(CC)Cc1ccccc1`, the uptake ratio at 2.5 µM (OCT1) was 67.5 and the clearance [1] was 62.8 mL/min/g.

`N=C(N)NC(=O)Cc1c(Cl)cccc1Cl` [GUANFACINE] gave an uptake ratio at 2.5 µM (OCT1) of 4.3 and a clearance [1] of 138 mL/min/g.

For `NC(N)=Nc1nc(CSCC/C(N)=N/S(N)(=O)=O)cs1`, the clearance [1] was 87.4 mL/min/g.

Work on `CC[N+](CC)(CC(=O)Nc1c(C)cccc1C)Cc1ccccc1` [DENATONIUM] yielded an uptake ratio at 2.5 µM (OCT1) of 21.6 and a clearance [1] of 71.4 mL/min/g.

With `Nc1ccncc1N` [AMIFAMPRIDINE] the uptake ratio at 2.5 µM (OCT1) was 6.8 and the clearance [1] was 18.8 mL/min/g.

For `CC(CCc1ccc(O)cc1)NCCc1ccc(O)c(O)c1` (stereo unspecified) [DOBUTAMINE], the uptake ratio at 2.5 µM (OCT1) was 14.7 and the clearance [1] was 5.2 mL/min/g.

With `C[N+]1(C)CCN(c2ccccc2)CC1` [DIMETHYLPHENYLPIPERAZINIUM] the uptake ratio at 2.5 µM (OCT1) was 38.9 and the clearance [1] was 47.2 mL/min/g.

`CC(NCCc1ccc(O)cc1)C(O)c1ccc(O)cc1` (stereo unspecified) [RITODRINE] showed an uptake ratio at 2.5 µM (OCT1) of 7.6 and a clearance [1] of 104 mL/min/g.

In the case of `CC(C)NC[C@H](O)COc1ccc(O)cc1` [PRENALTEROL], the uptake ratio at 2.5 µM (OCT1) is reported as 5.3 and the clearance [1] is reported as 12.4 mL/min/g.

`CN[C@@H]1CCc2[nH]c3ccc(C(N)=O)cc3c2C1` [FROVATRIPTAN] was tested, and the uptake ratio at 2.5 µM (OCT1) was 33.1 and the clearance [1] was 50.3 mL/min/g.

Work on `CC(CCc1ccc(O)cc1)NCC(O)c1ccc(O)cc1` (stereo unspecified) [RACTOPAMINE] yielded an uptake ratio at 2.5 µM (OCT1) of 7.1 and a clearance [1] of 111 mL/min/g.

`N=C(N)NCc1cccc(I)c1` [IOBENGUANE] gave an uptake ratio at 2.5 µM (OCT1) of 10.1 and a clearance [1] of 3160 mL/min/g.

For `CC[N+](C)(C)c1cccc(O)c1` [EDROPHONIUM], the uptake ratio at 2.5 µM (OCT1) was 42.6 and the clearance [1] was 99.5 mL/min/g.

B1: POU domain, class 2, transcription factor 1 (Homo sapiens), P14859 (protein)
chain: MNNPSETSKPSMESGDGNTGTQTNGLDFQKQPVPVGGAISTAQAQAFLGHLHQVQLAGTSLQAAAQSLNVQSKSNEESGDSQQPSQPSQQPSVQAAIPQTQLMLAGGQITGLTLTPAQQQLLLQQAQAQAQLLAAAVQQHSASQQHSAAGATISASAATPMTQIPLSQPIQIAQDLQQLQQLQQQNLNLQQFVLVHPTTNLQPAQFIISQTPQGQQGLLQAQNLLTQLPQQSQANLLQSQPSITLTSQPATPTRTIAATPIQTLPQSQSTPKRIDTPSLEEPSDLEELEQFAKTFKQRRIKLGFTQGDVGLAMGKLYGNDFSQTTISRFEALNLSFKNMCKLKPLLEKWLNDAENLSSDSSLSSPSALNSPGIEGLSRRRKKRTSIETNIRVALEKSFLENQKPTSEEITMIADQLNMEKEVIRVWFCNRRQKEKRINPPSSGGTSSSPIKAIFPSPTSLVATTPSLVTSSAATTLTVSPVLPLTSAAVTNLSVTGTSDTTSNNTATVISTAPPASSAVTSPSLSPSPSASASTSEASSASETSTTQTTSTPLSSPLGTSQVMVTASGLQTAAAAALQGAAQLPANASLAAMAAAAGLNPSLMAPSQFAAGGALLSLNPGTLSGALSPALMSNSTLATIQALASGGSLPITSLDATGNLVFANAGGAPNIVTAPLFLNPQNLSLLTSNPVSLVSAAAASAGNSAPVASLHATSTSAESIQNSLFTVASASGAASTTTTASKAQ
B1 gave a Km [2] of 23.4 µM, a Km [3] of 8.6 µM and a Km [4] of 2.26 µM. It also gave a Km [5] of 102 µM, a Km [6] of 196 µM and a Km [7] of 28.4 µM. It also gave a Km [8] of 62 µM, a Km [9] of 994 µM and a Km [10] of 221 µM. It also gave a Km [11] of 13.3 µM, a Km [12] of 389 µM and a Km [13] of 26.4 µM. For the same molecule, the Km [14] was 1.67 µM, the Km [15] was 38.6 µM and the Km [16] was 15.9 µM. It also gave a Km [17] of 61.9 µM, a Km [18] of 8.6 µM and a Km [19] of 35.7 µM. It also gave a Km [20] of 508 µM, a Km [21] of 12.6 µM and a Km [22] of 2.1 µM. It also gave a Vmax [23] of 1210 pmol/mg/min, a Vmax [24] of 1180 pmol/mg/min and a Vmax [25] of 340 pmol/mg/min. For the same molecule, the Vmax [26] was 338 pmol/mg/min, the Vmax [27] was 2760 pmol/mg/min and the Vmax [28] was 147 pmol/mg/min. The Vmax [29] was 2930 pmol/mg/min, the Vmax [30] was 4550 pmol/mg/min and the Vmax [31] was 3820 pmol/mg/min. For the same molecule, the Vmax [32] was 165 pmol/mg/min, the Vmax [33] was 3540 pmol/mg/min and the Vmax [34] was 2630 pmol/mg/min. For the same molecule, the Vmax [35] was 173 pmol/mg/min, the Vmax [36] was 2420 pmol/mg/min and the Vmax [37] was 5030 pmol/mg/min. For the same molecule, the Vmax [38] was 3110 pmol/mg/min, the Vmax [39] was 971 pmol/mg/min and the Vmax [40] was 3120 pmol/mg/min. The Vmax [41] was 9570 pmol/mg/min, the Vmax [42] was 902 pmol/mg/min and the Vmax [43] was 234 pmol/mg/min.
